How the values were obtained:
[1] = test system: 4T1 murine breast cancer cell line; test: Primary tumor growth of transfected 4T1 cells in BALB/c mice; assay type: in vivo; details: stable expression in 4T1 cells, mammary pad of BALB/c mice, vs empty vector, five weeks
From the text: Construction of mutant uPA clones and cell transfection. We chose to pursue a genetic approach, in which we stably transfected an aggressive and highly metastatic murine breast cancer cell line (4T1) with the genes for wild type uPA, tPA and a receptor binding mutant of uPA (uPAm). We inserted the cDNA encoding murine tPA into pcDNA 3.1 (+) (Invitrogen), a CMV driven mammalian expression vector, by restriction enzyme digestion of BamHI and NheI. Wild type uPA cDNA was inserted to the pcDNA 3.1 (+) expression vector and the transfected into 4T1 cells in a similar fashion as described for the tPA cDNA. Residues 22, 27, 29 and 30 on the growth factor domain of the murine uPA molecule have been implicated in binding to mouse uPAR.
The pcDNA 3.1-tPA, pcDNA 3.1-wild type uPA, pcDNA 3.1-uPAm constructs, as well as an empty vector control were introduced into 4T1 cells by transfection using lipofectamine (Gibco-BRL) reagent. We selected 12-14 stable single clones in each group with 500 ug/mL of hygromycin. Each of the clones was evaluated for generation of the gene of interest by northern blot. The clones that had the highest generation of the genes of interest were selected. […]
Experiments using transfected tumor cells. […] Primary tumor size was measured every other day for a total of five weeks using calipers and calculated using the standard formula (width2×length×0.52). […]

HUVEC cells = test: In vitro angiogenesis (matrigel tube formation) assay; assay type: cell-based, human; details: in the absence of plasma; rt-PA 1 μg/ml, captopril 0.1 μM
Protocol: In Vitro Angiogenesis (matrigel tube formation) Assay. Unpolymerized matrigel (7 mg/ml) was placed in the wells (100 μl/well) of a pre-chilled 48-well cell culture plate and then incubated at 37° C. for 30-45 minutes. HUVEC cells were harvested in trypsin and resuspended in EC medium (4×10^4 in 300 μl). Cells were treated with the different agents before plated onto the matrigel-coated plates. […] Microphotographs of the center of each well at low power (40×) were taken with a SPOT camera (Diagnostic Instruments Inc; Sterling Heights, Mich.) and the aid of an imaging capture software (Compix Inc Imaging Systems; Township, Pa.). The microphotographs were quantitatively analyzed (total tube length) with the Simple PCI imaging analysis software (Compix).
Matrigel tube formation assays. Samples collected from the purification process were exchanged into 1×PBS and reconstituted into 1× concentration (by volume) compared to the input tPA/captopril-treated plasma. They were tested in the matrigel tube formation assays at 10% (v/v) as follows. […] Tube formation was examined (4× magnification) through an inverted phase contrast microscope (Nikon Corporation; Tokyo, Japan) and recorded by a Spot RT camera (Diagnostic Instruments Inc; Sterling Heights, Mich.) using an automated image capture software (Compix Inc Imaging Systems; Township, Pa.).

Molecule | inhibition of primary tumor growth [1] | inhibition of tube formation (HUVEC cells)
tPA: murine tPA expressed from pcDNA 3.1 in 4T1 cells (not the rt-PA drug) (protein, UniProt P11214 33-559, looked up) Tissue-type plasminogen …: SYRATCRDEPTQTTYQQHQSWLRPMLRSSRVEYCRCNSGLVQCHSVPVRSCSEPRCFNGGTCQQALYFSDFVCQCPDGFVGKRCDIDTRATCFEEQGITYRGTWSTAESGAECINWNSSVLSLKPYNARRPNAIKLGLGNHNYCRNPDRDLKPWCYVFKAGKYTTEFCSTPACPKGKSEDCYVGKGVTYRGTHSLTTSQASCLPWNSIVLMGKSYTAWRTNSQALGLGRHNYCRNPDGDARPWCHVMKDRKLTWEYCDMSPCSTCGLRQYKRPQFRIKGGLYTDITSHPWQAAIFVKNKRSPGERFLCGGVLISSCWVLSAAHCFLERFPPNHLKVVLGRTYRVVPGEEEQTFEIEKYIVHEEFDDDTYDNDIALLQLRSQSKQCAQESSSVGTACLPDPNLQLPDWTECELSGYGKHEASSPFFSDRLKEAHVRLYPSSRCTSQHLFNKTVTNNMLCAGDTRSGGNQDLHDACQGDSGGPLVCMINKQMTLTGIISWGLGCGQKDVPGVYTKVTNYLDWIHDNMKQ | significantly inhibit tumor cell growth | 
rt-PA: rt-PA (Genentech), recombinant tissue plasminogen activator; called tPA in Example 2 (protein, UniProt P00750 36-562, looked up, alteplase) Tissue-type plasminogen …: SYQVICRDEKTQMIYQQHQSWLRPVLRSNRVEYCWCNSGRAQCHSVPVKSCSEPRCFNGGTCQQALYFSDFVCQCPEGFAGKCCEIDTRATCYEDQGISYRGTWSTAESGAECTNWNSSALAQKPYSGRRPDAIRLGLGNHNYCRNPDRDSKPWCYVFKAGKYSSEFCSTPACSEGNSDCYFGNGSAYRGTHSLTESGASCLPWNSMILIGKVYTAQNPSAQALGLGKHNYCRNPDGDAKPWCHVLKNRRLTWEYCDVPSCSTCGLRQYSQPQFRIKGGLFADIASHPWQAAIFAKHRRSPGERFLCGGILISSCWILSAAHCFQERFPPHHLTVILGRTYRVVPGEEEQKFEVEKYIVHKEFDDDTYDNDIALLQLKSDSSRCAQESSVVRTVCLPPADLQLPDWTECELSGYGKHEALSPFYSERLKEAHVRLYPSSRCTSQHLLNRTVTDNMLCAGDTRSGGPQANLHDACQGDSGGPLVCLNDGRMTLVGIISWGLGCGQKDVPGVYTKVTNYLDWIRDNMRP |  | did not cause significant inhibition of tube formation

Source: patent US20050232925A1, “Protease activity of thrombin inhibits angiogenesis” (priority 2002, published 2005)
